{"source": "patent US20030143692A1", "about": "“Methods and compositions for modulating integrin-mediated cell-cell interactions” (priority 2000, published 2003)", "key": {"[1]": {"system": "ADAM 23 mediated adhesion of NB100 neuroblastoma cells", "experiment": "Inhibition of ADAM 23 mediated adhesion of NB100 cells", "format": "cell-based, human", "settings": "NB100 cells incubated with peptide (20 or 40 μg/ml) prior to seeding", "procedure": "Cell adhesion assays were performed in accordance with procedures described by Luque et al. (FEBS Lett 1994 346:278-284). In these assays, 96-well immunoplates (MaxiSorp, Nunc, Denmark) were coated with 0.1 ml of PBS containing different amounts of BSA, glutathione S-transferase (GST), and ADAM 23/GST. After incubating 16 hours at 4° C., wells were blocked with DMEM containing 2.5% BSA, for 2 hours at 37° C. Then, NB100 neuroblastoma cells (approximately 50,000 cells per well) were added in Dulbecco's modified Eagle's medium (DMEM) supplemented with 1% BSA and incubated at 37° C. for 2 hours. For experiments directed to analyze the effect of divalent cations, the cells were washed three times in PBS, and resuspended in the same buffer supplemented either with 1 mM MgCl2, 50 μM MnCl2, 1 mM CaCl2, or 1 mM MgCl2 plus 5 mM EDTA. Non-bound cells were removed by rinsing the wells with serum-free medium, whereas bound cells were fixed with methanol and stained with Giemsa. Cells were counted per unit area with the aid of an inverted light microscope, using a 20× high powered objective and an ocular grid. […] In all cases, experimental treatments were performed in triplicate with a minimum of three areas counted per well."}, "endothelial cells": {"system": "endothelial cells", "experiment": "Murine MATRIGEL plug angiogenesis model", "format": "in vivo, female athymic (BALB/c nu/nu) mice", "procedure": "The angiogenic activity of ADAM 23 was evaluated in the murine MATRIGEL plug angiogenesis model. On day 0, ice-cold MATRIGEL (Becton-Dickinson, Bedford, Mass.) containing either vascular endothelial growth factor (VEGF, Pepro Tech, Inc., Rocky Hill, N.J.), basic fibroblast growth factor (bFGF, Pepro Tech, Inc., Rocky Hill, N.J.), […], saline buffer (PBS) or recombinant ADAM 23 disintegrin domain (dd) expressed as a GST fusion protein (GST-ADAM23dd) was implanted subcutaneously in female athymic (BALB/c nu/nu; Harlan, Indianapolis, Ind.) mice. The MATRIGEL polymerized immediately after implantation into mice forming a gel plug. On day 7, individual MATRIGEL plugs were harvested, fixed in 10% buffered formalin, embedded in paraffin, sectioned, and stained with hematoxylin-eosin. The number of endothelial cells present in each plug section was measured using a video imaging system (Image Pro-Plus, Empire Imaging, Princeton, N.J.). Fifty fields (at 20×) per plug section were randomly counted. Data are presented as “Average Number of Migrating Cells” and the p-value was determined using a two-tailed Student T-Test."}, "[2]": {"system": "NB100 human neuroblastoma cells", "experiment": "Cell adhesion assay on coated wells, NB100 cells", "format": "cell-based", "settings": "for cell adhesion to wells coated with the protein: bound cells stained and quantified", "procedure": "Cell adhesion assays were performed in accordance with procedures described by Luque et al. (FEBS Lett 1994 346:278-284). In these assays, 96-well immunoplates (MaxiSorp, Nunc, Denmark) were coated with 0.1 ml of PBS containing different amounts of BSA, glutathione S-transferase (GST), and ADAM 23/GST. After incubating 16 hours at 4° C., wells were blocked with DMEM containing 2.5% BSA, for 2 hours at 37° C. Then, NB100 neuroblastoma cells (approximately 50,000 cells per well) were added in Dulbecco's modified Eagle's medium (DMEM) supplemented with 1% BSA and incubated at 37° C. for 2 hours. For experiments directed to analyze the effect of divalent cations, the cells were washed three times in PBS, and resuspended in the same buffer supplemented either with 1 mM MgCl2, 50 μM MnCl2, 1 mM CaCl2, or 1 mM MgCl2 plus 5 mM EDTA. Non-bound cells were removed by rinsing the wells with serum-free medium, whereas bound cells were fixed with methanol and stained with Giemsa. Cells were counted per unit area with the aid of an inverted light microscope, using a 20× high powered objective and an ocular grid. For inhibition studies cells were pretreated for 30 minutes before the addition to the coated wells of mAb LM 609 (used at 1:400 dilution of ascites) or synthetic peptides (20 or 40 μg/ml) corresponding to the disintegrin loop of ADAM 23 (AVNEDCDIT, peptide 330 (SEQ ID NO:1)) or a “scrambled” peptide (DCVTNIAE, peptide 331 (SEQ ID NO:4)). In all cases, experimental treatments were performed in triplicate with a minimum of three areas counted per well."}, "T47D": {"system": "T47D", "experiment": "Cell adhesion assay on coated wells, T47D cells", "format": "cell-based"}, "HeLa": {"system": "HeLa", "experiment": "Cell adhesion assay on coated wells, HeLa cells", "format": "cell-based"}, "αvβ3 integrin": {"molecular_target": "T1, αvβ3 integrin (Homo sapiens, UniProt P05106+P06756)", "T1 construct": "purchased Chemicon International Inc., Temecula, Calif", "T1 sequence (P06756 31-889 limits assumed)": "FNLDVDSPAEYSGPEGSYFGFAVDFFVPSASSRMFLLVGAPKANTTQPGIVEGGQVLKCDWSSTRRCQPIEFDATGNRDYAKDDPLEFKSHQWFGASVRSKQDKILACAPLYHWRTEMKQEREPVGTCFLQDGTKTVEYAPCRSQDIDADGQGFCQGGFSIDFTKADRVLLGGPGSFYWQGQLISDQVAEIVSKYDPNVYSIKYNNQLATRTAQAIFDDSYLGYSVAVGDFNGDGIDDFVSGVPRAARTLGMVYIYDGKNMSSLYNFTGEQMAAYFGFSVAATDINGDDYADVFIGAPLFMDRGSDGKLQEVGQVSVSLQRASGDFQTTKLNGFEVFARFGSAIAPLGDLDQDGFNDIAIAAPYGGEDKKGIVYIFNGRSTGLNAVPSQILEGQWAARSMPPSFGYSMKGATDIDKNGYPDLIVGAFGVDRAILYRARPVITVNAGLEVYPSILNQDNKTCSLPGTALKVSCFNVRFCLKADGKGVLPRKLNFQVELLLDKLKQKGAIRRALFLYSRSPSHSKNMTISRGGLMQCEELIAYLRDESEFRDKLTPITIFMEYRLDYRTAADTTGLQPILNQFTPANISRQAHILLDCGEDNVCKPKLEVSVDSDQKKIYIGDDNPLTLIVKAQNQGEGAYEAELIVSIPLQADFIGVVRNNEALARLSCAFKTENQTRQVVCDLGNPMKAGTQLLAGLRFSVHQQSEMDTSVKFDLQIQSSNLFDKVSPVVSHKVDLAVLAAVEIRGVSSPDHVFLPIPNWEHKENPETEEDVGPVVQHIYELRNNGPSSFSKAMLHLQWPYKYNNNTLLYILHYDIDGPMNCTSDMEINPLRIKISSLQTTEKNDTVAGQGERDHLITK", "T1 sequence (P06756 891-1048 partner limits assumed)": "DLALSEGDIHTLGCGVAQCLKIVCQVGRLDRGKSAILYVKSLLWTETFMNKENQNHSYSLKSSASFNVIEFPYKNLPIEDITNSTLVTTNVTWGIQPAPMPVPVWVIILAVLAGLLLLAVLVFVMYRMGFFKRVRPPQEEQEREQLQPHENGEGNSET", "T1 sequence (P05106 27-788)": "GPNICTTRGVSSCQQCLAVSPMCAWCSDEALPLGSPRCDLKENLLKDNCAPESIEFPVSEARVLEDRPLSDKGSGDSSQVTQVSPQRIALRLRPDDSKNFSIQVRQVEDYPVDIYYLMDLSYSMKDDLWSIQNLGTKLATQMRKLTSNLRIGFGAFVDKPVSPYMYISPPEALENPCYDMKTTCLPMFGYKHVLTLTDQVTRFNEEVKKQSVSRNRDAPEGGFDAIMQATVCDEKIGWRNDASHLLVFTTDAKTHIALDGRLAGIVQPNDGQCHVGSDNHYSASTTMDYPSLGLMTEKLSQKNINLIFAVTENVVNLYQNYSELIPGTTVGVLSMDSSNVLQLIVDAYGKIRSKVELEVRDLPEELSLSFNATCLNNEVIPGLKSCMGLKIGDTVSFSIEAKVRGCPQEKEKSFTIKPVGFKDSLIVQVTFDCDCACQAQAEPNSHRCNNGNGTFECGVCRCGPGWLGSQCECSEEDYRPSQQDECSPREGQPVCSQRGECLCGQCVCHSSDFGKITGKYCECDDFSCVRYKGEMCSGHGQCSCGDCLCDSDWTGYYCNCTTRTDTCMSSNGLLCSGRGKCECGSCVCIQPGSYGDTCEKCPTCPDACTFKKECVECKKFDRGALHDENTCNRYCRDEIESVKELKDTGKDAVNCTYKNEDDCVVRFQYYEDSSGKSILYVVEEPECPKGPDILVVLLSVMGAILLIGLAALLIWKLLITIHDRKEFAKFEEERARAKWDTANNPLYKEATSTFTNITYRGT", "experiment": "Sepharose bead binding of purified integrin (SDS-PAGE / Western blot)", "settings": "confirmed by Western blot", "procedure": "(§1) Purified integrins ([…] αvβ3, α1β1 or α5β1) (Chemicon International Inc., Temecula, Calif.) were incubated with Sepharose 4B beads containing 0.5 μg of disintegrin-GST, in a buffer containing 50 mM Tris-HCl, 200 mM NaCl and 0.2 mM MnCl2 (pH 7.4), for 4 hours at 37° C. After incubation, beads were washed six times with 200 μl of the same buffer to remove unbound protein. Beads were then resuspended in Laemmli buffer and after boiling, solubilized proteins were loaded in a 6% SDS-PAGE gel, and visualized by silver staining. Alternatively, samples were blotted to a nitrocellulose membrane and the presence of αv or β3 integrin subunits was detected using polyclonal antibodies raised against these subunits. Similarly, the putative presence of β1 integrin subunits was examined with the B3B11 monoclonal antibody (Chemicon International Inc.). Western-blots were visualized by enhanced chemiluminescence according to the manufacturer s instructions (ECL, Amersham)."}, "α5β1": {"molecular_target": "T2, α5β1 (Homo sapiens, UniProt P05556+P08648)", "T2 construct": "purchased Chemicon International Inc., Temecula, Calif", "T2 sequence (P08648 42-894 limits assumed)": "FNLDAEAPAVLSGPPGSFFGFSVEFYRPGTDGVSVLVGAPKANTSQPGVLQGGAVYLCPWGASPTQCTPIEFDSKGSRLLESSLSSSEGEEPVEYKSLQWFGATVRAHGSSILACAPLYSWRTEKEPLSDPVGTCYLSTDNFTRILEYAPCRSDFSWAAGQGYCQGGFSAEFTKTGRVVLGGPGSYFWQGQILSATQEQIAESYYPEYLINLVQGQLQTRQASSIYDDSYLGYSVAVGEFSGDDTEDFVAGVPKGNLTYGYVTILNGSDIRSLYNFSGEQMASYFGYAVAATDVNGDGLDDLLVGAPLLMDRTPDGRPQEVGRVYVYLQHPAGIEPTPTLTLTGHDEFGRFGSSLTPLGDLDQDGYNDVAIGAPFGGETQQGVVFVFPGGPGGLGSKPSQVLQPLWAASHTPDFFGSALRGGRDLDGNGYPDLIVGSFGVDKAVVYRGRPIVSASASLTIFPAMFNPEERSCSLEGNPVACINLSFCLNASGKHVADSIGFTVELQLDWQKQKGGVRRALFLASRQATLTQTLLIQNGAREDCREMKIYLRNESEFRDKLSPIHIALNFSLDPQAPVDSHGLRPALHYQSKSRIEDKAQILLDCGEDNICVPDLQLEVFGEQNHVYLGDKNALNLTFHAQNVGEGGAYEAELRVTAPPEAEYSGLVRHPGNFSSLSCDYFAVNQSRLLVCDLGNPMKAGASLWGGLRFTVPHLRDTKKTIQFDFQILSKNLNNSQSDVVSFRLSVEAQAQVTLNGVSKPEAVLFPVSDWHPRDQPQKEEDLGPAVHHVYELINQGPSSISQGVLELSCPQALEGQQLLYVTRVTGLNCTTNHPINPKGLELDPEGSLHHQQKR", "T2 sequence (P08648 895-1049 partner limits assumed)": "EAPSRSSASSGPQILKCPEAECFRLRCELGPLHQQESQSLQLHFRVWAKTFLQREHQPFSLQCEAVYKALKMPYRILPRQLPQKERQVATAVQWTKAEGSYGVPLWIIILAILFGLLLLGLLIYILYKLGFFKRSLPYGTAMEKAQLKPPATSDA", "T2 sequence (P05556 21-798)": "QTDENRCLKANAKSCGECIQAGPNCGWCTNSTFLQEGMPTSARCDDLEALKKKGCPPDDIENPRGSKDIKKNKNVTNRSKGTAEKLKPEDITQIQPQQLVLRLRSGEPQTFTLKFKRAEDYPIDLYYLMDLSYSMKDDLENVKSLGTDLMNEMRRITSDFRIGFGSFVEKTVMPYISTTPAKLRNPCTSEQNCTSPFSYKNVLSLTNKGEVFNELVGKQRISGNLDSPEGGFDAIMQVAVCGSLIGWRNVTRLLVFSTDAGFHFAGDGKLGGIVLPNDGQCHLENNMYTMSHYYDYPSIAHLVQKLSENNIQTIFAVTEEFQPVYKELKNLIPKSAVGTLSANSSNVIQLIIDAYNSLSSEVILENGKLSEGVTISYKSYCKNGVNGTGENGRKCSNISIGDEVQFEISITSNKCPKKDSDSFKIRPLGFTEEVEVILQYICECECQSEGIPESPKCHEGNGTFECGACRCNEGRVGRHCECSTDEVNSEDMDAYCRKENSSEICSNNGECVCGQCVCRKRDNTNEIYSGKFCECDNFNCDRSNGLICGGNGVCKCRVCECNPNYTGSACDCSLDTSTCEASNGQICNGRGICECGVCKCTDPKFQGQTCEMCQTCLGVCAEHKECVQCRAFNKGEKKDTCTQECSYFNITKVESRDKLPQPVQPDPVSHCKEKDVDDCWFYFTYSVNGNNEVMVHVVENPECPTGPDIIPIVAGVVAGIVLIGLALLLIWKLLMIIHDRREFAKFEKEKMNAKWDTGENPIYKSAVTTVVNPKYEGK", "experiment": "Sepharose bead binding of purified integrin (SDS-PAGE / Western blot)", "procedure": "as §1"}, "α1β1": {"molecular_target": "T3, α1β1 (Homo sapiens, UniProt P05556+P56199)", "T3 construct": "purchased Chemicon International Inc., Temecula, Calif", "T3 sequence (P56199 29-1179)": "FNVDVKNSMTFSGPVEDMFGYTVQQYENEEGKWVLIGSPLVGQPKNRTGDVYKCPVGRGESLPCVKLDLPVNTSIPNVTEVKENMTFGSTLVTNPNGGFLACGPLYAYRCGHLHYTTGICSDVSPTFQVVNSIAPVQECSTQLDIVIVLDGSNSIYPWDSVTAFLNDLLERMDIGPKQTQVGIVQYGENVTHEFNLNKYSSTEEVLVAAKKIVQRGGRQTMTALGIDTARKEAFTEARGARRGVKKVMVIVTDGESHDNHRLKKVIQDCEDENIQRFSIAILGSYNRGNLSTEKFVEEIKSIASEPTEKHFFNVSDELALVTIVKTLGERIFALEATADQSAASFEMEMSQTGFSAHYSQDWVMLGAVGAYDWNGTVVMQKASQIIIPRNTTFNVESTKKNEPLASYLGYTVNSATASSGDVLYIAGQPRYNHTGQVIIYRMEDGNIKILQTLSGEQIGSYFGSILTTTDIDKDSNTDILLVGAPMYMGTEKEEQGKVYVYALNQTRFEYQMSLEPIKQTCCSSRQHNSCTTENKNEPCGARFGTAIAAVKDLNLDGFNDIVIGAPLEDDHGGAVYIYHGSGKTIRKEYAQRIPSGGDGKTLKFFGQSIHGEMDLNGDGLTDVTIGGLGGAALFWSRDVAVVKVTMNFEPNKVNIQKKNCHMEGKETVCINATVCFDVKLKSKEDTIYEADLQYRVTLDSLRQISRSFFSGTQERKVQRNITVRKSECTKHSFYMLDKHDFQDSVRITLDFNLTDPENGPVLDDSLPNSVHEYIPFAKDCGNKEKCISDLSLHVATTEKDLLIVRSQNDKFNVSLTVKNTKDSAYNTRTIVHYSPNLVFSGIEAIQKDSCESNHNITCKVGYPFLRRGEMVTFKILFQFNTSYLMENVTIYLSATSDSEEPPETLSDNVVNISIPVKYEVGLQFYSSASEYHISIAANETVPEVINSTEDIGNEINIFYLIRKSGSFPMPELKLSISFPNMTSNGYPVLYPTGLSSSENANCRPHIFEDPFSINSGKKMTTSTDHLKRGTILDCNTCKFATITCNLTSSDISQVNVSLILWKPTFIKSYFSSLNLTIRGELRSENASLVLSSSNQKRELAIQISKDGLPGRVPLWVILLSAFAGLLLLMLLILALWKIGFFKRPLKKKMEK", "T3 sequence (P05556 21-798)": "as the sequence (P05556 21-798) above", "experiment": "Sepharose bead binding of purified integrin (SDS-PAGE / Western blot)", "procedure": "as §1"}, "HT1080": {"system": "HT1080", "experiment": "Cell adhesion assay on coated wells, HT1080 cells", "format": "cell-based"}}}
{"molecule": "AVNECDIT [pep330]", "values": [{"measurement": "effect of peptide on adherent cells on plates containing ADAM 23", "setting": "[1]", "result": "significant loss of adherent cells"}]}
{"molecule": "DCVTNIAE [pep331, reference compound]", "values": [{"measurement": "effect of peptide on adherent cells on plates containing ADAM 23", "setting": "[1]", "result": "this effect was not observed"}]}
{"molecule": "GST: glutathione S-transferase, control protein for the fusion protein [reference compound]", "values": [{"measurement": "angiogenic response (cells in MATRIGEL plug sections)", "setting": "endothelial cells; subcutaneous plug, harvested day 7", "result": "a significant number of cells was not observed"}, {"measurement": "cell adhesion to wells coated with the protein", "setting": "[2]", "result": "did not support any significant cell adhesion"}]}
{"molecule": "albumin: albumin used as control coating of wells [reference compound]", "values": [{"measurement": "cell adhesion to wells coated with the protein", "setting": "[2]", "result": "did not support any significant cell adhesion"}]}
{"molecule": "fibronectin [reference compound]", "values": [{"measurement": "cell adhesion to wells coated with the protein", "setting": "[2]", "result": "promoted cell adhesion"}]}
{"molecule": "ADAM 23-GST: recombinant ADAM 23 disintegrin domain expressed as a GST fusion protein in E. coli, about 40 kDa (protein, left off: a dimerising Fc or GST, recombinant ADAM 23 disintegrin domain expressed as a GST fusion protein in E. coli, about 40 kDa) KLFEPTECGNGYVEAGEECDCGFHVECYGLCCKKCSLSNGAHCSDGPCCNNTSCLFQPRGYECRDAVNECDITEYCTGDSGQCPPNLHKQD", "values": [{"measurement": "ADAM 23-mediated adhesion", "setting": "T47D", "result": "no significant ADAM 23-mediated adhesion"}, {"measurement": "dose dependence of angiogenic response", "setting": "endothelial cells; 4, 20.5 or 61.5 μg/plug, day 7", "result": "dose-dependent"}, {"measurement": "cell types in plug sections (microscopic histologic analyses)", "setting": "endothelial cells; day 7, hematoxylin-eosin", "result": "both endothelial and smooth muscle cells were present"}, {"measurement": "ADAM 23-mediated adhesion", "setting": "HeLa", "result": "no significant ADAM 23-mediated adhesion"}, {"measurement": "bound αvβ3 integrin (αv and β3 bands) on protein-containing beads", "setting": "αvβ3 integrin", "result": "detected"}, {"measurement": "interaction with purified integrin", "setting": "α5β1", "result": "did not reveal any evidence of interaction"}, {"measurement": "interaction with purified integrin", "setting": "α1β1", "result": "did not reveal any evidence of interaction"}, {"measurement": "dose dependence of ADAM 23-promoted cell adhesiveness", "setting": "[2]", "result": "dose-dependent"}, {"measurement": "attachment of cells in the presence of divalent cations", "setting": "[2]; Mn2+ and Mg2+", "result": "stimulated"}, {"measurement": "cell adhesion to wells coated with the protein", "setting": "[2]", "result": "promoted cell adhesion"}, {"measurement": "ADAM 23-mediated adhesion", "setting": "HT1080", "result": "no significant ADAM 23-mediated adhesion"}]}
